The source of these data is US20180244738A1.

This assay addresses NuRD complex (nucleosome remodeling and deacetylase corepressor complex). The experiment in a line: cell-based or functional assay.

With “full-length SALL1, wild-type (transfected, pcDNA3.1-SALL1) (from UniProt Q9NSC2 1-1324)”, the tumor cell senescence (SA-β-Gal+ cells) in transfected MCF-7 and E0771 cells, 3 days was 40%.
